From US20220064329A1 (Novo Nordisk, published 2022)

T1: recombinant human activated Factor VII (FVIIa) (human, UniProt P08709 61-212; P08709 213-466, ten glutamate residues of the Gla domain may be gamma-carboxylated)
T1 construct: chains tethered by a disulfide bond; also called Factor VIIa; rFVIIa
T1 sequence 1: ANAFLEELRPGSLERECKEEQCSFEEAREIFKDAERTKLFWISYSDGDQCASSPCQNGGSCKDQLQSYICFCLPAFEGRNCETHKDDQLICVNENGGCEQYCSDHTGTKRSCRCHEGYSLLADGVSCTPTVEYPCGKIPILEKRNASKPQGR
T1 sequence 2: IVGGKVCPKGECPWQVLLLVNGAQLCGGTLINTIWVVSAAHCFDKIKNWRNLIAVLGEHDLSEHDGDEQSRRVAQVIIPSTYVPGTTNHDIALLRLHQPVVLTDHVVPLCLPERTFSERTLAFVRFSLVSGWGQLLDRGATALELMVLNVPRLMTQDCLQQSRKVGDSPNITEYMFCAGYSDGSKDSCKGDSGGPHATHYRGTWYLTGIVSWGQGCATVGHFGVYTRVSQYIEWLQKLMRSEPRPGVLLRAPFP


Each binder was assayed against T1, recombinant human activated Factor VII … (assay: BLI (Fortebio)).
Protocol: All steps were performed in running buffer (20 mM HEPES buffer (pH 7.4), 150 mM NaCl, 5 mM CaCl2, 0.03% Tween 20, 1 mg/ml IgG-free BSA) at […] Antibodies were captured on anti-human tips (AHC, Fortebio) for 3 min at a concentration of 10 ug/ml. This was followed by a 3 min incubation to establish a baseline. Following this, association was monitored for 3 min using four different concentrations of VIIa (25 nm, 50 nM, 100 nM, and 200 nM), followed by a 3 mi dissociation. Sensorgrams were analysed using Fortebio data analysis software.

| Kd [nM] | Binder |
| --- | --- |
| 0.94 | VH SEQ ID NO 530 / VL SEQ ID NO 502 (antibody, IgG4, V domains shown, humanized 11F2; IgG4 S228P/kappa) VH: QVQLQESGPGLVEPSQTLSLTCTVSGYSISSDSAWSWIRQPPGKGLEWIGYIQYSGSTNYNPSLKSRVTISRDTSKNQFSLKLSSVTAADTAVYYCARSVNYYGNSFAVGYWGQGTLVTVSS VL: EIVLTQSPATLSLSPGERATLSCRASQGVSDYLHWYQQKPGQAPRLLIKYTSQPATGIPARFSGSGSGTDFTLTISSLEPEDFAVYYCQNGHSFPLTFGQGTKLEIK |
| 6.2 | VH SEQ ID NO 538 / VL SEQ ID NO 366 (antibody, IgG4, V domains shown, humanized 11F2; IgG4 S228P/kappa) VH: QVQLQESGPGLVEPSQTLSLTCTVSGYSITSDSAWSWIRQPPGKKLEWIGYIQYSGSTNYNPSLKSRVTISRDTSKNQFSLKLSSVTAADTAVYYCARSVNYYGNSFAVGYWGQGTLVTVSS VL: EIVLTQSPATLSLSPGERATLSCRASQGLSDYLAWYQQKPGEAPRLLIKYASQPATGIPARFSGSGSGTDFTLTISSLEPEDFAVYYCQNGHSFPLTFGQGTKLEIK |
| 1.2 | VH SEQ ID NO 538 / VL SEQ ID NO 342 (antibody, IgG4, V domains shown, humanized 11F2; IgG4 S228P/kappa) VH: QVQLQESGPGLVEPSQTLSLTCTVSGYSITSDSAWSWIRQPPGKKLEWIGYIQYSGSTNYNPSLKSRVTISRDTSKNQFSLKLSSVTAADTAVYYCARSVNYYGNSFAVGYWGQGTLVTVSS VL: EIVLTQSPATLSLSPGERATLSCRASQGISDYLHWYQQKPGQAPRLLIKYTSQPATGIPARFSGSGSGRDFTLTISSLEPEDFAVYYCQNGHSFPLTFGAGTKLELK |
| 1 | VH SEQ ID NO 538 / VL SEQ ID NO 350 (antibody, IgG4, V domains shown, humanized 11F2; IgG4 S228P/kappa) VH: QVQLQESGPGLVEPSQTLSLTCTVSGYSITSDSAWSWIRQPPGKKLEWIGYIQYSGSTNYNPSLKSRVTISRDTSKNQFSLKLSSVTAADTAVYYCARSVNYYGNSFAVGYWGQGTLVTVSS VL: EIVLTQSPATLSLSPGERATLSCRASQGISDYLHWYQQKPGQAPRLLIKYTSQPATGIPARFSGSGSGTDFTLTISSLEPEDFAVYYCQNGHSFPLTFGAGTKLELK |
| 2.5 | VH SEQ ID NO 538 / VL SEQ ID NO 310 (antibody, IgG4, V domains shown, humanized 11F2; IgG4 S228P/kappa) VH: QVQLQESGPGLVEPSQTLSLTCTVSGYSITSDSAWSWIRQPPGKKLEWIGYIQYSGSTNYNPSLKSRVTISRDTSKNQFSLKLSSVTAADTAVYYCARSVNYYGNSFAVGYWGQGTLVTVSS VL: EIVLTQSPATLSLSPGERATLSCRASQGISDYLAWYQQKPGQAPRLLIKYASQPATGIPARFSGSGSGTDFTLTISSLEPEDFAVYYCQNGHSFPLTFGQGTKLEIK |
| 0.64 | VH SEQ ID NO 538 / VL SEQ ID NO 318 (antibody, IgG4, V domains shown, humanized 11F2; IgG4 S228P/kappa) VH: QVQLQESGPGLVEPSQTLSLTCTVSGYSITSDSAWSWIRQPPGKKLEWIGYIQYSGSTNYNPSLKSRVTISRDTSKNQFSLKLSSVTAADTAVYYCARSVNYYGNSFAVGYWGQGTLVTVSS VL: EIVLTQSPATLSLSPGERATLSCRASQGISDYLHWYQQKPGEAPRLLIKYTSQPATGIPARFSGSGSGTDFTLTISSLEPEDFAVYYCQNGHSFPLTFGQGTKLEIK |
| 0.58 | VH SEQ ID NO 538 / VL SEQ ID NO 326 (antibody, IgG4, V domains shown, humanized 11F2; IgG4 S228P/kappa) VH: QVQLQESGPGLVEPSQTLSLTCTVSGYSITSDSAWSWIRQPPGKKLEWIGYIQYSGSTNYNPSLKSRVTISRDTSKNQFSLKLSSVTAADTAVYYCARSVNYYGNSFAVGYWGQGTLVTVSS VL: EIVLTQSPATLSLSPGERATLSCRASQGISDYLHWYQQKPGEAPRLLIKYTSQPATGIPARFSGSGSGTDFTLTISSLEPEDFGVYYCQNGHSFPLTFGAGTKLELK |
| 0.97 | VH SEQ ID NO 538 / VL SEQ ID NO 334 (antibody, IgG4, V domains shown, humanized 11F2; IgG4 S228P/kappa) VH: QVQLQESGPGLVEPSQTLSLTCTVSGYSITSDSAWSWIRQPPGKKLEWIGYIQYSGSTNYNPSLKSRVTISRDTSKNQFSLKLSSVTAADTAVYYCARSVNYYGNSFAVGYWGQGTLVTVSS VL: EIVLTQSPATLSLSPGERATLSCRASQGISDYLHWYQQKPGQAPRLLIKYASQPATGIPARFSGSGSGTDFTLTISSLEPEDFAVYYCQNGHSFPLTFGQGTKLEIK |
| 0.89 | VH SEQ ID NO 538 / VL SEQ ID NO 358 (antibody, IgG4, V domains shown, humanized 11F2; IgG4 S228P/kappa) VH: QVQLQESGPGLVEPSQTLSLTCTVSGYSITSDSAWSWIRQPPGKKLEWIGYIQYSGSTNYNPSLKSRVTISRDTSKNQFSLKLSSVTAADTAVYYCARSVNYYGNSFAVGYWGQGTLVTVSS VL: EIVLTQSPATLSLSPGERATLSCRASQGISDYLHWYQQKPGQAPRLLIKYTSQPATGIPARFSGSGSGTDFTLTISSLEPEDFAVYYCQNGHSFPLTFGQGTKLEIK |
